B1: CH59 (antibody, V domains shown)
VH: EVQLVESGGGLVQPGRSLRLSCAASGFTFDDGAMHWVRQAPGKGLEWVSGISWNSNIIAYADSVKGRFTISRDNAKNSLYLEMNSLRVEDTALYYCAKDSPRGELPLNYWGQGTLVTVSS
VL: SYELTQPPSVSVSPGQTARITCSGDALPKNYAYWYQQKSGQAPVLVIYEDSKRPSGIPERFSGSSSGTMATLTISGAQVEDEADYYCYSTDSSGNHRVFGGGTKLTVL
B2: 697D (antibody, V domains shown)
VH: QVQLVQSGAEVKKPGSSVKVSCKASGGNFNTYTISWVRQAPGQGLEWMGRIIPIFGIVNPAQKFPGRVTINVDKSTNTAYMELSSLRSEDTAVYYCATSGVGLHFGYFDYWGQGTQVTVSS
VL: QSVLTQPPSVSGAPGQRVTISCTGSSSNIGAHYDVHWYQQLPGTAPKLLIYGNSNRPSGVPDRFSGSKSGTSASLAITGLQAEDEADYYCQSYDSSLSGYVFGTGTKVTVL

Legend:
[1] = target: V2 aa 168-182 peptide (HIV-1); assay: ELISA on V2 peptide (FIG. 55A)
[2] = target: 92TH023 V2 cyclic peptide (HIV-1); assay: RPMI 8866 cell adhesion to coated peptide, mAb 5 ug/ml
[3] = target: 92TH023 V2 cyclic peptide (HIV-1); assay: RPMI 8866 cell adhesion to coated peptide, mAb 10 ug/ml
[4] = target: 92TH023 V2 cyclic peptide (HIV-1); assay: RPMI 8866 cell adhesion to coated peptide, mAb 20 ug/ml

Binder | EC50 [1] [ng/mL] | % inhibition [2] [%] | % inhibition [3] [%] | % inhibition [4] [%]
B1 | 3 | 19.4 | 36.7 | 44.8
B2 |  |  | -13.1 | 

Source: patent US9988424
